# Assay results as given in US7910100B2, “Antibodies directed to the mammalian EAG1 ion channel protein” (Max-Planck-Gesellschaft zur Forderung der Wissen, priority 2004, dated 2011).
# B1: ImAb4: mouse monoclonal anti-Eag1 antibody, IgG2b kappa; light chain SEQ ID NO: 2, heavy chain SEQ ID NO: 4 (antibody, listed as Mus musculus)
# heavy: MRVLILLWLFTAFPGILSDVQLQESGPGLVKPSQSLSLTCTVTGYSITSDYAWNWIRQFPGNKLEWMGYISYSGSTIYNPSLKSRISITRDTSKNQFFLQLNSVTTEDTATYYCARFGNYGNTLNYWGQGTSVTVSSAKTTPPSVYPLAPGCGDTTGSSVTLGCLVKGYFPESVTVTWNSGSLSSSVHTFPALLQSGLYTMSSSVTVPSSTWPSQTVTCSVAHPASSTTVDKKLEPSGPISTINPCPPCKECHKCPAPNLEGGPSVFIFPPNIKDVLMISLTPKVTCVVVDVSEDDPDVQISWFVNNVEVHTAQTQTHREDYNSTIRVVSTLPIQHQDWMSGKEFKCKVNNKDLPSPIERTISKIKGLVRAPQVYILPPPAEQLSRKDVSLTCLVVGFNPGDISVEWTSNGHTEENYKDTAPVLDSDGSYFIYSKLNMKTSKWEKTDSFSCNVRHEGLKNYYLKKTISRSPGK
# light: MKLPVRLLVLMFWIPASSSDVVMTQTPLSLPVSLGDQASISCRSSQSLVHSNGNTYLHWYLQKPGQSPKLLIYKVSNRFSGVPDRFSGSGSGTDFTLKISRVEAEDLGVYFCSQSTHVPPTFGGGTKLEIKRADAAPTVSIFPPSSEQLTSGGASVVCFLNNFYPKDINVKWKIDGSERQNGVLNSWTDQDSKDSTYSMSSTLTLTKDEYERHNSYTCEATHKTSTSPIVKSFNRNEC
# B2: ImAb1: mouse monoclonal anti-Eag1 antibody; VL SEQ ID NO: 43, VH SEQ ID NO: 44; binds C-terminus of Eag1 (antibody, listed as Mus musculus)
# heavy: MNFGFSLIFLVLVLKGVQCEVKLVESGGGLVKPGGSLKLSCAASGFTFSNYAMSWVRQTPEKRLEWVASISSDGDTYFPDNVKGRFTISRENAGNILFLQMSSLRSEDTAMYYCARGFMITFWGQGTLVTVSAAKTTPPSVYPLAPGCGDTTGSSVTLGCLVKGYFPESVTVTWNSGSLSSSVHTFPALLQSGLYTMSSSVTVPSSTWPSQTVTCSVAHPASSTTVD
# light: MDMRAPAQFFGILLLWFPGIRCDIKMTQSPSSMYASLGERVTITCKASQDIKSYLSWYQQKPWKSPKILIYYATSLADGVPSRISGSGSGQDYSLTISSLESDDTATYYCLQHGESPYTFGGGTKLEIKRADAAPTVSIFPPSSEQLTSGGASVVCFLNNFYPKDINVKWKIDGSERQNGVLNSWTDQDSKDSTYSMSSTLTLTKDEYERHNSYTCEATHKTSTSPIVKSFNRNEC
# Key:
# [1] = biological target: T1, Eag1 in rat brain sections (Rattus norvegicus, UniProt Q63472); test: Immunohistochemistry of rat brain sections (cerebellum, hippocampus); type: binding; conditions: ImAb1 4 μg/ml, ImAb4 2 μg/ml, overnight 4° C.
# T1 construct: from tissue; host or cells: brain (cerebellum, hippocampus) of postnatal-day 21 Sprague Dawley rats
# T1 sequence (Q63472 1-962): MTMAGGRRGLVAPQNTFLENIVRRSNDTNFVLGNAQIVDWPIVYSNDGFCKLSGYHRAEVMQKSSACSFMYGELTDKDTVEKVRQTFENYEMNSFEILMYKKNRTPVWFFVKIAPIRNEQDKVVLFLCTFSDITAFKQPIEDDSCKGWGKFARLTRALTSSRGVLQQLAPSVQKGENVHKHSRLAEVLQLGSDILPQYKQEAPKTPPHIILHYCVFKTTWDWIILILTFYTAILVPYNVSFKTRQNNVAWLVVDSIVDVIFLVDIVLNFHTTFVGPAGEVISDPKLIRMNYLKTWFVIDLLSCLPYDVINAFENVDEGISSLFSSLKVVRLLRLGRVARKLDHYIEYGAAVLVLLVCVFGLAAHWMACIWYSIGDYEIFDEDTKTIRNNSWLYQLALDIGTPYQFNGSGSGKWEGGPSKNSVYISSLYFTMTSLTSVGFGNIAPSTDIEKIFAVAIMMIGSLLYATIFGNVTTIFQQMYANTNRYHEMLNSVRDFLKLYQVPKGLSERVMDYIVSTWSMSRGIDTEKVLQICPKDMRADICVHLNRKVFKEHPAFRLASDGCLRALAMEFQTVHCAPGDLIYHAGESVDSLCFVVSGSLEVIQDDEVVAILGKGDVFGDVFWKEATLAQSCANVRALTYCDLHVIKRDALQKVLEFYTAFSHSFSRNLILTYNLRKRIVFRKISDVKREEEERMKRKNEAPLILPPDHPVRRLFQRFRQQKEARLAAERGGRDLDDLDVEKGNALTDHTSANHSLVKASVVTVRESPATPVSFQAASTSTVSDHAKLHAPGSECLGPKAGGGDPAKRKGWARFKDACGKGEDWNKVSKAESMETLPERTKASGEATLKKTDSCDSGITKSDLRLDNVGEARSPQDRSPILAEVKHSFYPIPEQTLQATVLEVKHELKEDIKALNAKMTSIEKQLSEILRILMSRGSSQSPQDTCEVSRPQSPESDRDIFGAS
# Method: Cross-reactivity of anti-Eag1 antibodies of the invention were further analysed by Immunohistochemistry studies of rat brain sections of the cerebellum and the hippocampus. For the IHC, two postnatal-day 21 Sprague Dawley rats were anesthetized with a mixture of ketamine HCl (Ketaset; 100 mg/ml; Fort Dodge Laboratories, Inc., U.S.A.) and xylazine (Rompun; 20 mg/ml; Mile, Inc., U.S.A.) at 0.1 ml/100 g body weight. The animals were transcardially perfused with a fixative consisting of 4% p-formaldehyde in 0.12 M phosphate buffer (pH 7.2). After perfusion, brains were removed, fixed for an additional hour at 4° C., rinsed three times with PBS and stored overnight at 4° C. Coronal and sagital sections (40-50 μm) were cut in cold PBS using a vibratome (Leica, Vienna, Austria). Slices were incubated for 1 h with 10% normal goat serum in PBS, then with anti-Eag1 antibodies ImAb1 (4 μg/ml) and ImAb4 (2 μg/ml) in PBS overnight at 4° C. and processed using the avidin/biotin-peroxidase system (Vectastain kit, Vector Laboratories, Burlingame, Calif.). Antibody binding was visualized using 3′-3-diaminobenzidine tetrahydrochloride (DAB; DAB substrate kit for peroxidase, Vector Laboratories). […] Sections were analysed with a Zeiss Axiophot microscope.
# [2] = system: Eag1 peptides (pore domain / CAD domain of immunogen); test: Epitope mapping on SPOT cellulose membrane with 76 overlapping peptides; type: binding; conditions: 76 overlapping 13 mer peptides, shift 2 aa; antibody diluted 1:2000
# [3] = system: Eag1 overexpressing CHO K1 cells; test: Internalization of Cy3-labelled antibodies, immunofluorescence on living cells; type: cell-based; conditions: Cy3-labelled antibody; for binding to Eag1 antigen on living cells: overnight; for internalization into cells: within 24 h
# Method: In order to analyse the internalization properties of the anti-Eag1 antibodies of invention, CHO cells were grown on coverslips and incubated in normal medium (Ham's F12, 10% FCS) overnight (37 C, 5% CO2) with anti-Eag1 antibodies ImAb1 and ImAb4 directly labeled with Cy3 (100 μg). Cultures were thereafter incubated with app. 2 μg/ml Hoechst 33342 for 10 min.
# [4] = system: Eag2; test: BIAcore cross-reactivity with Eag family member Eag2; type: binding; conditions: 10 μg/ml antibody, flow rate 20 μl/min; chip coated with Eag2 equivalent regions
# Method: In order to analyse cross-reactivity of anti-Eag1 antibodies of the invention with the most homologous Eag family member Eag2 a BIAcore™ binding analysis was performed. BIAcore chips were coated with Eag1 C-terminus (amino acids 694 to 962), the H5 region (amino acids 374 to 452) or Eag2 (the equivalent regions fused in a single construct). The interaction with anti-Eag1 antibodies ImAb1 and ImAb3 were analysed using 10 μg/ml antibody at a flow rate of 20 μl/min.
Molecule,cross-reactivity with rat (IHC staining) [1],peptide spots bound (epitope) [2],binding to Eag1 antigen on living cells [3],internalization into cells [3],cross-reactivity with Eag2 [4]
B1,cross-reacts with other mammalian species such as rat,bound at spots 3-8,bind to Eag1 antigen on living cells expressing the antigen,are internalized into the cells,–
B2,cross-reacts with other mammalian species such as rat,bound weakly to peptides 21-24,bind to Eag1 antigen on living cells expressing the antigen,are internalized into the cells,do not cross-react with Eag2
